Laboratory results as given in the supplement of paper PMC10567573.

B1: RHOBTB1 (parent)
chain: TFGDHHKDRRFAYGRSDVVVLCFS
B2: ANKRD17 (parent)
chain: EVLRRLTSSVSCALDEAAAALTRM

Variants of: B1
Test: protein stability index of a GFP-peptide fusion (GPS, HEK-293T) (PSI 1-6); higher = more stable
Details: c terminus: a fixed tail appended
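Note: lentivirally expressed fusions sorted by FACS into six bins by GFP to DsRed ratio, PSI derived from sequencing read proportions per bin multiplied by bin number.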

| Variant | protein stability index |
| --- | --- |
| TFGDHHKDRRFAYGRWDVVVLCFS | 2.29 |
| LFGDHHKDRRFAYGRSDVVVLCFS | 2.59 |
| TFGDHHKDRRWAYGRSDVVVLCFS | 2.28 |
| TFGDHHKDRRKAYGRSDVVVLCFS | 1.35 |
| TFGDHHKDRAFAYGRSDVVVLCFS | 2.32 |
| TFGDHHKDRTFAYGRSDVVVLCFS | 2.93 |
| TFGDHHDDRRFAYGRSDVVVLCFS | 2.76 |
| TFGDHHADRRFAYGRSDVVVLCFS | 1.53 |
| TFGDHHYDRRFAYGRSDVVVLCFS | 3.88 |
| TFGDHHKDRRFAYGQSDVVVLCFS | 2.66 |
| TFGDHHKDRRFAYGSSDVVVLCFS | 2.34 |
| TFGDHHKDRRFAEGRSDVVVLCFS | 1.93 |
| TFGDHHKDRRFARGRSDVVVLCFS | 1.33 |
| TFGDHHKDRRFAAGRSDVVVLCFS | 1.36 |
| TFGDHHKHRRFAYGRSDVVVLCFS | 2.82 |
| TFGDHHKERRFAYGRSDVVVLCFS | 2.77 |
| TFGDHHKDRRFAYGRSDVVVLVFS | 3.33 |
| TFGDHHKDRRFAYGRSDVVVLAFS | 1.72 |
| TFGDHHKDVRFAYGRSDVVVLCFS | 3.55 |
| TFGDHHKDGRFAYGRSDVVVLCFS | 2.82 |
| TFGDHHKDDRFAYGRSDVVVLCFS | 3.4 |
| TFGDHHKDRRFAYGRSCVVVLCFS | 3.12 |
| TFGDHHKDRRFAYGRSMVVVLCFS | 3.13 |
| TFGDHHKDRRFAYGRSIVVVLCFS | 3.11 |
| TFGWHHKDRRFAYGRSDVVVLCFS | 3.1 |

| Variant | protein stability index |
| --- | --- |
| TFGTHHKDRRFAYGRSDVVVLCFS | 2.54 |
| TFGQHHKDRRFAYGRSDVVVLCFS | 3.51 |
| TFGKHHKDRRFAYGRSDVVVLCFS | 2.06 |
| TKGDHHKDRRFAYGRSDVVVLCFS | 2.65 |
| TFGDHHKDRRFAYQRSDVVVLCFS | 3.11 |
| TFGDHHKDRRFAYGRSDGVVLCFS | 1.68 |
| TFGDHHKDRRFAYGRSDHVVLCFS | 1.88 |
| TFGDHHKDRRFAYGRSDTVVLCFS | 1.54 |
| TFGDHHKDRRFIYGRSDVVVLCFS | 3.53 |
| TFGDHHKDRRFEYGRSDVVVLCFS | 1.93 |
| TFGDHHKDRRFAYGRSDVVVLCFC | 3.85 |
| TFGDHHKDRRFAYGRSDVVVLCFV | 2.3 |
| TFGDLHKDRRFAYGRSDVVVLCFS | 2.09 |
| TFGDHHKDRRFAYGRSDVVVLCWS | 1.81 |
| TFGDHHKDRRFAYGRSDVVVLCGS | 2.47 |
| TFGDHHKDRRFAYGRSDVVVLCYS | 2.22 |
| TFGDHHKDRRFAYGRSDVVVLCCS | 2.41 |
| TFRDHHKDRRFAYGRSDVVVLCFS | 1.52 |
| TFKDHHKDRRFAYGRSDVVVLCFS | 1.74 |
| TFGDHHKDRRFAYGRSDVVVGCFS | 2.23 |
| TFGDHHKDRRFAYGRSDVVVHCFS | 1.9 |
| TFGDHHKDRRFAYGRSDVVVKCFS | 2.34 |
| TFGDHHKDRRFAYGRSDVVVWCFS | 2.3 |
| TFGDHHKDRRFAYGRSDVVGLCFS | 2.05 |

Variants of: B2
Test: as above
Details: c terminus: a fixed tail appended

| Variant | protein stability index |
| --- | --- |
| EVLRRLTSSDSCALDEAAAALTRM | 3.61 |
| EVLRRLTSSASCALDEAAAALTRM | 3.08 |
| EVLRRLTSSGSCALDEAAAALTRM | 1.1 |
| EVLRRLTSSESCALDEAAAALTRM | 1.81 |
| EVLRRLTSSHSCALDEAAAALTRM | 1.74 |
| EVLRRLTSSCSCALDEAAAALTRM | 1.98 |
| EVLRRLTGSVSCALDEAAAALTRM | 1.52 |
| EVLRRLTASVSCALDEAAAALTRM | 1.68 |
| EVLRRLTTSVSCALDEAAAALTRM | 3 |
| EVLRRLTWSVSCALDEAAAALTRM | 3.21 |
| EVLRRLTRSVSCALDEAAAALTRM | 2.21 |
| EVLRRLTPSVSCALDEAAAALTRM | 1.73 |
| EVLRRLTYSVSCALDEAAAALTRM | 1.99 |
| EVLRRLTHSVSCALDEAAAALTRM | 2.09 |
| EVLRRLTDSVSCALDEAAAALTRM | 2.25 |
| EVLRRLTFSVSCALDEAAAALTRM | 4.21 |
| EVLRRLTQSVSCALDEAAAALTRM | 1.41 |
| EVLRRLTKSVSCALDEAAAALTRM | 2.39 |
| EVLRRLTCSVSCALDEAAAALTRM | 2.81 |
| EVLRRLTNSVSCALDEAAAALTRM | 2.49 |
| EVLRRLTVSVSCALDEAAAALTRM | 2.27 |
| EVLRRLTMSVSCALDEAAAALTRM | 2.13 |
| ELLRRLTSSVSCALDEAAAALTRM | 2.35 |
| ESLRRLTSSVSCALDEAAAALTRM | 2.59 |

| Variant | protein stability index |
| --- | --- |
| EWLRRLTSSVSCALDEAAAALTRM | 1.69 |
| EKLRRLTSSVSCALDEAAAALTRM | 2.33 |
| EYLRRLTSSVSCALDEAAAALTRM | 2.08 |
| EELRRLTSSVSCALDEAAAALTRM | 2.21 |
| EHLRRLTSSVSCALDEAAAALTRM | 3.64 |
| EDLRRLTSSVSCALDEAAAALTRM | 2.77 |
| ETLRRLTSSVSCALDEAAAALTRM | 2.79 |
| EILRRLTSSVSCALDEAAAALTRM | 2.4 |
| EALRRLTSSVSCALDEAAAALTRM | 2.96 |
| ECLRRLTSSVSCALDEAAAALTRM | 2.34 |
| EQLRRLTSSVSCALDEAAAALTRM | 2.56 |
| ERLRRLTSSVSCALDEAAAALTRM | 2.6 |
| EPLRRLTSSVSCALDEAAAALTRM | 2.43 |
| EMLRRLTSSVSCALDEAAAALTRM | 2.56 |
| EVLRRLVSSVSCALDEAAAALTRM | 3 |
| EVLRRLSSSVSCALDEAAAALTRM | 2.09 |
| EVLRRLGSSVSCALDEAAAALTRM | 2.27 |
| EVLRRLNSSVSCALDEAAAALTRM | 1.16 |
| EVLRRLLSSVSCALDEAAAALTRM | 2.95 |
| EVLRRLESSVSCALDEAAAALTRM | 2.81 |
| EVLRRLASSVSCALDEAAAALTRM | 2.96 |
| EVLRRLPSSVSCALDEAAAALTRM | 2.52 |
| EVLRRLDSSVSCALDEAAAALTRM | 1.81 |
| EVLRRLCSSVSCALDEAAAALTRM | 2.05 |

| Variant | protein stability index |
| --- | --- |
| EVLRRLKSSVSCALDEAAAALTRM | 3.26 |
| EVLRRLRSSVSCALDEAAAALTRM | 3 |
| EVLRRLHSSVSCALDEAAAALTRM | 1.17 |
| EVLRRLWSSVSCALDEAAAALTRM | 1.98 |
| EVLRRLQSSVSCALDEAAAALTRM | 2.6 |
| EVLRRLMSSVSCALDEAAAALTRM | 2.05 |
| EVLRRLYSSVSCALDEAAAALTRM | 2.2 |
| EVLRRLISSVSCALDEAAAALTRM | 2.06 |
| EVLRRLFSSVSCALDEAAAALTRM | 1.66 |
| EVYRRLTSSVSCALDEAAAALTRM | 2.44 |
| EVDRRLTSSVSCALDEAAAALTRM | 3.35 |
| EVGRRLTSSVSCALDEAAAALTRM | 3.68 |
| EVIRRLTSSVSCALDEAAAALTRM | 1.23 |
| EVRRRLTSSVSCALDEAAAALTRM | 2.17 |
| EVWRRLTSSVSCALDEAAAALTRM | 1.4 |
| EVPRRLTSSVSCALDEAAAALTRM | 3.4 |
| EVTRRLTSSVSCALDEAAAALTRM | 1.55 |
| EVARRLTSSVSCALDEAAAALTRM | 1.83 |
| EVMRRLTSSVSCALDEAAAALTRM | 1.41 |
| EVSRRLTSSVSCALDEAAAALTRM | 2.98 |
| EVLSRLTSSVSCALDEAAAALTRM | 1.05 |
| EVLWRLTSSVSCALDEAAAALTRM | 1.07 |
| EVLQRLTSSVSCALDEAAAALTRM | 1.57 |
| EVLGRLTSSVSCALDEAAAALTRM | 2.19 |

| Variant | protein stability index |
| --- | --- |
| EVLTRLTSSVSCALDEAAAALTRM | 2.1 |
| EVLFRLTSSVSCALDEAAAALTRM | 1.03 |
| EVLPRLTSSVSCALDEAAAALTRM | 2.15 |
| EVLCRLTSSVSCALDEAAAALTRM | 1.74 |
| EVLIRLTSSVSCALDEAAAALTRM | 1.04 |
| EVLERLTSSVSCALDEAAAALTRM | 1.42 |
| EVLYRLTSSVSCALDEAAAALTRM | 2.34 |
| QVLRRLTSSVSCALDEAAAALTRM | 3.07 |
| DVLRRLTSSVSCALDEAAAALTRM | 1.97 |
| RVLRRLTSSVSCALDEAAAALTRM | 3.12 |
| SVLRRLTSSVSCALDEAAAALTRM | 2.2 |
| MVLRRLTSSVSCALDEAAAALTRM | 1.38 |
| IVLRRLTSSVSCALDEAAAALTRM | 1.89 |
| TVLRRLTSSVSCALDEAAAALTRM | 2.08 |
| KVLRRLTSSVSCALDEAAAALTRM | 2.28 |
| FVLRRLTSSVSCALDEAAAALTRM | 1.73 |
| YVLRRLTSSVSCALDEAAAALTRM | 2.22 |
| LVLRRLTSSVSCALDEAAAALTRM | 1.8 |
| GVLRRLTSSVSCALDEAAAALTRM | 2.73 |
| AVLRRLTSSVSCALDEAAAALTRM | 2.07 |
| VVLRRLTSSVSCALDEAAAALTRM | 2.42 |
| HVLRRLTSSVSCALDEAAAALTRM | 2.67 |
| PVLRRLTSSVSCALDEAAAALTRM | 2.48 |
| CVLRRLTSSVSCALDEAAAALTRM | 1.94 |

| Variant | protein stability index |
| --- | --- |
| EVLRLLTSSVSCALDEAAAALTRM | 1.59 |
| EVLRDLTSSVSCALDEAAAALTRM | 3.56 |
| EVLRWLTSSVSCALDEAAAALTRM | 1.02 |
| EVLRKLTSSVSCALDEAAAALTRM | 4.55 |
| EVLRFLTSSVSCALDEAAAALTRM | 1.68 |
| EVLRGLTSSVSCALDEAAAALTRM | 2.1 |
| EVLRSLTSSVSCALDEAAAALTRM | 2.18 |
| EVLRTLTSSVSCALDEAAAALTRM | 1 |
| EVLRMLTSSVSCALDEAAAALTRM | 2.05 |
| EVLRHLTSSVSCALDEAAAALTRM | 2.23 |
| EVLRPLTSSVSCALDEAAAALTRM | 2.02 |
| EVLRNLTSSVSCALDEAAAALTRM | 2.35 |
| EVLRRLTSRVSCALDEAAAALTRM | 2.69 |
| EVLRRLTSDVSCALDEAAAALTRM | 1.65 |
| EVLRRLTSTVSCALDEAAAALTRM | 1.66 |
| EVLRRLTSWVSCALDEAAAALTRM | 2.63 |
| EVLRRLTSQVSCALDEAAAALTRM | 2.21 |
| EVLRRLTSGVSCALDEAAAALTRM | 1.64 |
| EVLRRLTSPVSCALDEAAAALTRM | 1.94 |
| EVLRRLTSAVSCALDEAAAALTRM | 2.11 |
| EVLRRLTSFVSCALDEAAAALTRM | 2.38 |
| EVLRRLTSNVSCALDEAAAALTRM | 1.81 |
| EVLRRLTSMVSCALDEAAAALTRM | 2.49 |
| EVLRRLTSIVSCALDEAAAALTRM | 1.97 |

| Variant | protein stability index |
| --- | --- |
| EVLRRLTSCVSCALDEAAAALTRM | 1.87 |
| EVLRRLTSEVSCALDEAAAALTRM | 1.47 |
| EVLRRLTSYVSCALDEAAAALTRM | 1.58 |
| EVLRRSTSSVSCALDEAAAALTRM | 1.73 |
| EVLRRMTSSVSCALDEAAAALTRM | 1.76 |
| EVLRRQTSSVSCALDEAAAALTRM | 2.95 |
| EVLRRPTSSVSCALDEAAAALTRM | 2.38 |
| EVLRRCTSSVSCALDEAAAALTRM | 2.38 |
| EVLRRITSSVSCALDEAAAALTRM | 1.67 |
| EVLRRFTSSVSCALDEAAAALTRM | 1.9 |
| EVLRRWTSSVSCALDEAAAALTRM | 2 |
| EVLRRGTSSVSCALDEAAAALTRM | 1.42 |
| EVLRRATSSVSCALDEAAAALTRM | 2.11 |
| EVLRRETSSVSCALDEAAAALTRM | 3.9 |
| EVLRRKTSSVSCALDEAAAALTRM | 2.17 |
| EVLRRYTSSVSCALDEAAAALTRM | 2.28 |
| EVLRRTTSSVSCALDEAAAALTRM | 2.32 |
| EVLRRHTSSVSCALDEAAAALTRM | 1.66 |
| EVLRRNTSSVSCALDEAAAALTRM | 2.07 |
